According to patent publication US20210206856A1 (PANDION OPERATIONS, published 2021):

T1: mouse MAdCAM expressed on cells (mouse, UniProt Q61826 22-405)
T1 construct: whole, on cells
T1 sequence (looked up): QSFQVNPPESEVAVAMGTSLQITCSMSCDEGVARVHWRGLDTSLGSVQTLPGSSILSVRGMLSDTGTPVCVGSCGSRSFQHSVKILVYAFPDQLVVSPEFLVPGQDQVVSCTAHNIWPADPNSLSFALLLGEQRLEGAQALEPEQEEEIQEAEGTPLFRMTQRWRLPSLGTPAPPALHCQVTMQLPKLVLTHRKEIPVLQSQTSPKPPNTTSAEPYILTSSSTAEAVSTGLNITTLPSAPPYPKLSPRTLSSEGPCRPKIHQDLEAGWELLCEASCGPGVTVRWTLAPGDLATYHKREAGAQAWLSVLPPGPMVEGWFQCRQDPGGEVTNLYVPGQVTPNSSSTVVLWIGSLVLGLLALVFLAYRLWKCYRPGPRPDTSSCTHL

T2: human MAdCAM expressed on cells (human, UniProt Q13477 19-382)
T2 construct: whole, on cells; also called MADCAM1
T2 sequence (looked up): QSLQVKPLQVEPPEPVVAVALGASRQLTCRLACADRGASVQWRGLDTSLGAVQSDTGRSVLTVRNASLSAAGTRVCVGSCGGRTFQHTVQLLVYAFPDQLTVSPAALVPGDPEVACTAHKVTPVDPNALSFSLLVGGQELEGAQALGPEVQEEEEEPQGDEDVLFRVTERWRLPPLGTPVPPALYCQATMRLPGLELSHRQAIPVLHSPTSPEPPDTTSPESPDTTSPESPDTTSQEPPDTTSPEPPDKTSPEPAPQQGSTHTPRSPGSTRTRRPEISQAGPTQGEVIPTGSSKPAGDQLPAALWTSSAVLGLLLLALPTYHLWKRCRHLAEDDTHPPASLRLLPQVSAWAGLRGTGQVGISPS

B1: MAdCAM Antibody Table 1 Clone 25 (scFv)
scFv: QVQLVQSGAEVKKPGASVKVSCKASGYTLTTWYMYWVRQAPGQGLEWMGWINPNRGATNYAQKFQGRVTMTRDTSTSTVYMELSSLRSEDTAVYYCAKGDLWGAMDVWGQGTLVTVSSGGGGSGGGGSGGGGSGGGGSDIQMTQSPSSLSASVGDRVTITCRASDNIGSWLAWYQQKPGKAPKLLIYAASSLQSGVPSRFSGSGSGTDFTLTISSLQPEDFATYYCQQGYSTPPTFGQGTKVEIK
B2: MAdCAM Antibody Table 1 Clone 30 (scFv)
scFv: B1 scFv
B3: MAdCAM Antibody Table 2 Clone 80 (antibody, human IgG1, V domains shown)
VH: EVQLLESGGGLVQPGGSLRLSCAASGFTFDDYAMHWVRQAPGKGLEWVSAISGSGGSTYYADSVKGRFTISRDNSKNTLYLQMNSLRAEDTAVYYCAKDLGVVVPAALDYWGQGTTVTVSS
VL: DIQMTQSPSSLSASVGDRVTITCQASQDISNHLNWYQQKPGKAPKLLIYDASNLEAGVPSRFSGSGSGTDFTLTISSLQPEDFATYYCQQSYSTPLTFGGGTKVEIK
B4: MAdCAM Antibody Table 2 Clone 82 (antibody, human IgG1, V domains shown)
VH: QVQLVQSGAEVKKPGASVKVSCKASGYTFTRHWIHWVRQAPGQGLEWMGWINVKTGGAGYAQKFQGRVTMTRDTSTSTVYMELSSLRSEDTAVYYCARESSGWYGTDVWGQGTTVTVSS
VL: DIQMTQSPSSLSASVGDRATITCRASQSISNYLAWYQQKPGKAPKLLIYAASSLQSGVPSRFSGSGSGTDFTLTISSLQPEDFATYYCQQSNSFPLTFGGGTKVEIK
B5: MAdCAM Antibody Table 2 Clone 84 (antibody, human IgG1, V domains shown)
VH: QVQLVQSGAEVKKPGASVKVSCKASGGTFSSSAISWVRQAPGQGLEWMGWISAYNGYTNYAQKFQGRVTMTRDTSTSTVYMELSSLRSEDTAVYYCASRVHSGGSYPDDYWGQGTLVTVSS
VL: DIQMTQSPSSLSASVGDRVTITCQASEHIYNYLNWYQQKPGKAPKLLIYAASSLQSGVPSRFSGSGSGTDFTLTISSLQPEDFATYYCQQTDSIPITFGQGTKVEIK
B6: MAdCAM Antibody Table 2 Clone 79 (antibody, human IgG1, V domains shown)
VH: EVQLLESGGGLVKPGGSLRLSCAASGFTFDDYAMHWVRQAPGKGLEWVASITSSSAFIDYAASVKGRFTISRDDSKNTLYLQMNSLKTEDTAVYYCARERVDWNSYFDLWGRGTLVTVSS
VL: EIVMTQSPATLSVSPGERATLSCRASQGISNSYLAWYQQKPGQAPRLLIYGASTRATGIPARFSGSGSGTEFTLTISSLQSEDFAVYYCQQYYTYPPTFGPGTKVDIK
B7: MAdCAM Antibody Table 2 Clone 81 (antibody, human IgG1, V domains shown)
VH: EVQLLESGGGLVKPGGSLRLSCAASGFAFSSHWMHWVRQAPGKGLEWVAGTSGSGESRDYADFVKGRFTISRDDSKNTLYLQMNSLKTEDTAVYYCARETYYYYYMDVWGKGTTVTVSS
VL: DIQMTQSPSSLSASVGDRVTITCRASQGISNYLAWYQQKPGKAPKLLIYDAANLEGGVPSRFSGSGSGTDFTLTISSLQPEDFATYYCQQSDIFPPTFGQGTKVEIK
B8: MAdCAM Antibody Table 2 Clone 83 (antibody, human IgG1, V domains shown)
VH: EVQLLESGGGLVQPGGSLRLSCAASGFTFSSYWMHWVRQAPGKGLEWVAAISYDGKYKDYEDSVKGRFTISRDNSKNTLYLQMNSLRAEDTAVYYCARENKQWLASFDYWGQGTLVTVSS
VL: DIQMTQSPSSLSASVGDRVTITCQASQDISNFVNWYQQKPGKAPKLLIYAANLRSGVPSRFSGSGSGTDFTLTISSLQPEDFATYYCQQANSFPVTFGPGTKVDIK

target: T1, mouse MAdCAM expressed on cells; test: cell binding

binding result | Binder
no binding | B1
no binding | B2

target: T1, mouse MAdCAM expressed on cells; test: cell binding; remark: another data set of the same source

binding result | Binder
no binding | B3
binds | B4
binds | B5
binds | B6
binds | B7
binds | B8

target: T2, human MAdCAM expressed on cells; test: cell binding

binding result | Binder
binds | B3
binds | B4
binds | B5
binds | B6
binds | B7
binds | B8
